Consider 2 molecules from paper PMC2581641 (Molecular microbiology, 2008).

Where a chain is given by its changes, count along the chain named.

What all share (assay): two-hybrid
One test addresses T1, λCI-AlgQ fusion protein (P. aeruginosa, UniProt P15275 1-160).
T1 sequence (looked up): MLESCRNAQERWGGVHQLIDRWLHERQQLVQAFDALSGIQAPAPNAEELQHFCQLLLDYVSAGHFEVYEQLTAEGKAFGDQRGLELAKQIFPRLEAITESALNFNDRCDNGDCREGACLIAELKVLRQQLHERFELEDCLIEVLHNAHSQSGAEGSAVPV

The target of test [1] is T2, λCI-Rsd fusion protein with substitution G14E (E. coli, UniProt P0AFX4 1-158, G14E).
T2 sequence (looked up): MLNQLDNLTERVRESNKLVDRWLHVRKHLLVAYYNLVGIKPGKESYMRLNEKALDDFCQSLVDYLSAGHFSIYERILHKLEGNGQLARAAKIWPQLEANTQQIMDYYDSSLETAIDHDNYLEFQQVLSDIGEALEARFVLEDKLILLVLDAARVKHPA

For test [2], the target named is T3, λCI-Rsd fusion protein with substitutions G14E and Y34F (E. coli, UniProt P0AFX4 1-158, G14E | Y34F).
T3 sequence (looked up): T2 sequence (looked up) with Y34F

Test [3] addresses T4, λCI-Rsd fusion protein with substitution Y34F (E. coli, UniProt P0AFX4 1-158, Y34F).
T4 sequence (looked up): T2 sequence (looked up) with E14G, Y34F

B1: α-Pa σ^70 region 2 fusion protein (domain or fragment, P. aeruginosa, UniProt P26480 96-450, looked up)
chain: TTDPVRMYMREMGTVELLTREGEIEIAKRIEEGIREVMSAIAQFPGTVDSILADYNRIVAEGGRLSDVLSGYIDPDDGSLPAEEVEPVNLKDDSADSKEKDDEEEESDDSSDSDDEGDGGPDPEEARLRFTAVSEQLDKAKKALKKHGRGSKQATAELTGLAELFMPIKLVPKQFDALVARVRSALEGVRAQERAIMQLCVRDARMPRADFLRLFPNHETDEKWVDSVLKSKPKYAEAIERLRDDILRNQQKLAALESEVELTVAEIKEINRAMSIGEAKARRAKKEMVEANLRLVISIAKKYTNRGLQFLDLIQEGNIGLMKAVDKFEYRRGYKFSTYATWWIRQAITRSIADQ
For B1, the “fold activation of lacZ transcription” value in the test with λCI-AlgQ fusion protein was about 14 fold.

B2: α-σ^70 region 2 fusion protein (domain or fragment, E. coli, UniProt P00579 94-448, looked up)
chain: TTDPVRMYMREMGTVELLTREGEIDIAKRIEDGINQVQCSVAEYPEAITYLLEQYDRVEAEEARLSDLITGFVDPNAEEDLAPTATHVGSELSQEDLDDDEDEDEEDGDDDSADDDNSIDPELAREKFAELRAQYVVTRDTIKAKGRSHATAQEEILKLSEVFKQFRLVPKQFDYLVNSMRVMMDRVRTQERLIMKLCVEQCKMPKKNFITLFTGNETSDTWFNAAIAMNKPWSEKLHDVSEEVHRALQKLQQIEEETGLTIEQVKDINRRMSIGEAKARRAKKEMVEANLRLVISIAKKYTNRGLQFLDLIQEGNIGLMKAVDKFEYRRGYKFSTYATWWIRQAITRSIADQAR
B2: the results for the “fold activation of lacZ transcription” value in test [1], in test [2] and in test [3] were about 10 fold, about 12 fold and about 9 fold, respectively.
